For data set [1] the following is noted: corresponding value for the original scaffold protein; cited from earlier work.
Data set [2] can be described thus: Chemical denaturation with guanidinium hydrochloride monitored by CD at 222 nm (thermodynamic stability). In kind it is physicochemical. The procedure:
The thermodynamic stability of the proteins was assessed by chemical denaturation studies, in which the CD signal at 222 nm was monitored at increasing concentrations of denaturant agent, guanidinium hydrochloride (FIG. 7B). A 1 cm path length rectangular quartz cell was used. The cell holder was temperature controlled at 25° C. The buffer was 10 mM potassium phosphate, pH 7.0. The bandwidth was 1.00 nm. At each GdnHCl concentration, cell chamber was equilibrated for 6 minutes, then data were collected. The curve is described by the equation: ΔGobs=ΔGH2O+m[GdnHCl] in which ΔGobs is the free energy for the two state unfolding equilibrium observed at a given concentration of GdnHCl, ΔGH2O is the free energy of denaturation extrapolated to zero GdnHCl concentration, m is a constant that provide a measure of the cooperativity of the process.
The resulting sigmoidal curve was analyzed to extrapolate the free energy of folding, ΔG, estimated to be −4.2 Kcal/mol; the corresponding ΔG for 1LQ7 is −4.6 Kcal/mol.

Data set [3] has as its system macrophages. The following applies: cited from earlier work.
The subject of data set [4] is macrophages. The data set can be described thus: Quantification of phagocytosis of IgG-opsonized FITC latex beads by flow cytometry (in vitro macrophage activation test). In kind it is cell-based. The note with it: cells stimulated overnight, then 30' with FITC beads conjugated with IgG. The procedure:
The present invention discloses a method for rapid, quantitative in vitro testing for macrophage activation. Phagocytosis is a cytoskeleton-dependent process of engulfment of large particles. Phagocytes use various surface receptors to bind and internalize the foreign particles for processing the pathogens in lysosomes (phagolysosomes) for presentation of antigens to the immune system. The effects of Gc-MAF with both positive and negative controls of phagocytosis are determined. As positive controls, macrophages are also stimulated with Beta-1,3 glucans, a well-known immune stimulator, for functional comparison. Specifically, curdlan, linear (1,3)-Beta-D-glucans are used. […] Once the cells are suspended in the culture medium, quantification of phagocytosis is accomplished by flow cytometry. One unique feature of flow cytometry is that it measures fluorescence per cell or particle. FIG. 8 illustrates the quantification of phagocytosis by flow cytometry. […] A FACSCalibur (FACS=Fluorescence Activated Cell Sorter) system (Becton Dickinson) equipped with an air-cooled argon ion laser (488 nm, 15 mW output) is used for this study. Forward light scatter (FSC) and 90° light scatter (SSC) were measured at 488 nm and fluorescence emissions (FL parameters) were collected using the FSC as the triggering signal. Fluorescence data was reported by CellQuest software (Becton Dickinson). […]
A general note: Flow cytometry measures light scatter and fluorescence of single cells or particles in a stream.

No end group written: not given here.

As to “1LQ7: stable designed three-helix bundle scaffold from the Protein Data Bank, originally designed at the University of Pennsylvania (chain 1 GSRVKALEEKVKALEEKVKALGGGG; chain 2 RIEELKKKWEELKKKIEELGGGG; chain 3 EVKKVEEEVKKLEEEIKKL; not fully specified (N-terminus); also: helices are one chain joined by GGGG loops)”, in data set [1], the “free energy of folding, ΔG (scaffold)” value is -4.6 kcal/mol.

As for “MM1: 69 residue three-helix bundle peptide: scaffold 1LQ7 with both loops replaced by Gc-MAF Domain III loop; non-glycosylated analog, negative control (chain 1 Ac-GSRVKALEEKVKALEEKVKALGNAT; chain 2 PTELAKKKWEELKKKIEELGNATPT; chain 3 EVKKVEEEVKKLEEEIKKL-NH2; not fully specified (N-terminus); also: helices are one chain joined by the loops, non-glycosylated)”, the “free energy of folding, ΔG” value in data set [2] (GdnHCl denaturation, 25° C., 10 mM potassium phosphate, pH 7.0, extrapolated to zero GdnHCl) is -4.2 kcal/mol. Besides, the “free energy of folding relative to that of the original scaffold protein, 1LQ7” value in data set [2] (difference from 1LQ7) was at most 30%. Moreover, the aggregation state result in data set [2] (helical content at room temperature and free energy of folding independent of concentration, corroborated by equilibrium sedimentation) was “monomeric”.

B1: Gc-MAF: serum glycoprotein macrophage activating factor, formed from Vitamin D Binding Protein by post-translation modifications (protein, UniProt P02774 17-474, looked up)
Vitamin D-binding protein: LERGRDYEKNKVCKEFSHLGKEDFTSLSLVLYSRKFPSGTFEQVSQLVKEVVSLTEACCAEGADPDCYDTRTSALSAKSCESNSPFPVHPGTAECCTKEGLERKLCMAALKHQPQEFPTYVEPTNDEICEAFRKDPKEYANQFMWEYSTNYGQAPLSLLVSYTKSYLSMVGSCCTSASPTVCFLKERLQLKHLSLLTTLSNRVCSQYAAYGEKKSRLSNLIKLAQKVPTADLEDVLPLAEDITNILSKCCESASEDCMAKELPEHTVKLCDNLSTKNSKFEDCCQEKTAMDVFVCTYFMPAAQLPELPDVELPTNKDVCDPGNTKVMDKYTFELSRRTHLPEVFLSKVLEPTLKSLGECCDVEDSTTCFNAKGPLLKKELSSFIDKGQELCADYSENTFTEYKKKLAERLKAKLPDATPTELAKLVNKHSDFASNCCSINSPPLYCDSEIDAELKNIL
modifications: deglycosylated macrophage activating form
With B1, the “time to macrophage activation” value in the data set with macrophages [3] (enzymatically activated Gc-MAF given to Ehrlich ascite tumor-bearing mice) was “less than 6 hr”. Also, in the data set with macrophages [3] (injection of Gc-MAF), the “time to substantially increased initiation of antibody production” value is at most 48 h. The same molecule came in with a mean fluorescence intensity in the data set with macrophages [4] (FL1 channel, non-stimulated control 543±149) of 724±155. Further, the “percentage of cells positive to phagocytosis (M2)” value in the data set with macrophages [4] (non-stimulated control 43.6±10.3%) was determined as 57.5±6.6%.

The values are drawn from patent publication US20070275001A1, “Rational Design and Engineering of Proteins and Peptides for Immunomodulation” (Arizona Board of Regents, priority 2004, published 2007).
